The results in this text go back to US20240034814A1 (JANUX THERAPEUTICS, published 2024).

Substitutions are numbered along the chain they refer to.

Experiment [1] concerns the target T1, TROP2 on NCI-H292 tumor cells (UniProt P09758 27-274).
T1 sequence (looked up): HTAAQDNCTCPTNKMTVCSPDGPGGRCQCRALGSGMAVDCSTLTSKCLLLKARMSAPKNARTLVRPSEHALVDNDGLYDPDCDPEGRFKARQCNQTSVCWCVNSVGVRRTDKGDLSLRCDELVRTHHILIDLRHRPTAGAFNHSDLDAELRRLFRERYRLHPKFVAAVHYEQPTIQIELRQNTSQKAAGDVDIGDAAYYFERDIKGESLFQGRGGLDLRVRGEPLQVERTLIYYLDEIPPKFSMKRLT
Briefly: cell-based or functional assay.

Experiment [2] concerns the target T2, human serum albumin (human, UniProt P02768 25-609).
T2 construct: also called HSA; HSA-biotin
Briefly: BLI (Octet RED96), biotinylated HSA on streptavidin biosensors, HE-1 titrated 100-3.125 nM, association and dissociation at pH 5.5, 1:1 fit. On the technique in general: In BLI a coated tip is dipped into the sample, and binding shifts an interference pattern.

The target of experiment [3] is T3, cynomolgus monkey serum albumin (cynomolgus monkey, UniProt A2V9Z4 25-608).
T3 construct: Coated on ELISA plates; also called cyno albumin
Briefly: ELISA on an albumin coated plate, single domain antibody titrated, HRP secondary antibody, OD 450 nm. For orientation: In an ELISA, binding on a coated surface is turned into a signal by an enzyme label.

The target in experiment [4] is T2, human serum albumin. Briefly: BLI (Octet RED96), biotinylated HSA on streptavidin biosensors, HE-1 titrated 100-3.125 nM, pH 7.4, 1:1 fit.
Experiment [5] addresses T3, cynomolgus monkey serum albumin. Briefly: ELISA, albumin coated plates, single domain antibody titrated, pH 5.5.
Experiment [6] has as its target T2, human serum albumin. The experiment is described as above.
The target in the next experiment is T4, Mouse Albumin (mouse, UniProt P07724).
T4 construct: coated on the ELISA plate; not described further; also called mouse serum albumin
Briefly: ELISA on an albumin coated plate, single domain antibody titrated, HRP secondary antibody, OD 450 nm.

For experiment [7], the target named is T2, human serum albumin. The description is as above.
Experiment [8] addresses T3, cynomolgus monkey serum albumin. Briefly: ELISA, albumin coated plates, single domain antibody titrated, pH 7.4.
The target of experiment [9] is T2, human serum albumin. The experiment is described as above.
In experiment [10] the target is T2, human serum albumin. Kind of experiment: Octet, biotinylated human serum albumin on streptavidin biosensors, acidic buffer, association 1 (saturation using SDA).
Experiment [11] deals with T1, TROP2 on NCI-H292 tumor cells. Briefly: Trop2 binding ELISA (TROP2 as ELISA antigen, not on cells), polypeptide complex titrated, OD 450 nm.

T3 sequence (A2V9Z4 25-608 limits assumed): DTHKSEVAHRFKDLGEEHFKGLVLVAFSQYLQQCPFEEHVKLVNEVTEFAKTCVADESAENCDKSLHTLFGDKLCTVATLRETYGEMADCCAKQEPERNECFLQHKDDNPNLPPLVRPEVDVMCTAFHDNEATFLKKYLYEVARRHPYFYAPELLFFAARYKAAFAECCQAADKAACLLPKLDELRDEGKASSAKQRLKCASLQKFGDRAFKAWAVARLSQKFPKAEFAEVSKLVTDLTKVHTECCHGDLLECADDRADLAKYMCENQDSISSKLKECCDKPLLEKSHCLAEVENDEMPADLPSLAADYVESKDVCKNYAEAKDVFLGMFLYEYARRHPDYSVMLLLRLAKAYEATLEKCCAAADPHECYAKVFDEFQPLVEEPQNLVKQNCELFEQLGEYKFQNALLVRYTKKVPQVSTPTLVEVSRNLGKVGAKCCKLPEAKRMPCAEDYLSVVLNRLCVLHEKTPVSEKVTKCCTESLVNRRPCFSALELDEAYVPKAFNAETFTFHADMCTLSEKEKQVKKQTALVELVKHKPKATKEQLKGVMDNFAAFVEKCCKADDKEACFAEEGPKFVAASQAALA
T4 sequence (P07724 25-608 limits assumed): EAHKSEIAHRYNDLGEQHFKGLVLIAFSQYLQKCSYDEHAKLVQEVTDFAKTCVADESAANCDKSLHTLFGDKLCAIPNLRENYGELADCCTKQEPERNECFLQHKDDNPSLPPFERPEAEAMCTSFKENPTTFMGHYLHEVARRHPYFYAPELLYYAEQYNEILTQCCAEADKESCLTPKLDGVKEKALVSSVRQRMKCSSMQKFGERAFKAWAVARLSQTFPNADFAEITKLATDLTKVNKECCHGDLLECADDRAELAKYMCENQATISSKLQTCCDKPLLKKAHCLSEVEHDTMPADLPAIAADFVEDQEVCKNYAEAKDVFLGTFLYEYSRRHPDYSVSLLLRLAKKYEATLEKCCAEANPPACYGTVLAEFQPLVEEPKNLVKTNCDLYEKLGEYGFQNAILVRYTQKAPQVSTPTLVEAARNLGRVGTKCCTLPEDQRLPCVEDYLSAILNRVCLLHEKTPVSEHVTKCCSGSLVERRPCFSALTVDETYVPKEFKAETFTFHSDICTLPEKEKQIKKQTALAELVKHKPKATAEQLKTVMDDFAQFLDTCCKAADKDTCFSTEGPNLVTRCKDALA

B1: Polypeptide complex PC4 (bispecific antibody)
light: GGVDFCKIYSWPVCHQGGGGSGGLSGRSDAGSPLGLAGSGGSDIQLTQSPSSLSASVGDRVSITCKASQDVSIAVAWYQQKPGKAPKLLIYSASYRYTGVPDRFSGSGSGTDFTLTISSLQPEDFAVYYCQQHYITPLTFGAGTKVEIKRTVAAPSVFIFPPSDEQLKSGTASVVCLLNNFYPREAKVQWKVDNALQSGNSQESVTEQDSKDSTYSLSSTLTLSKADYEKHKVYACEVTHQGLSSPVTKSFNRGEC
heavy: not shown
Take B1: the “H292 IC50 (pM), 72 hours, tumor cell killing with CD8+ T cells” value in experiment [1] worked out at 4120 pM.

B2: HE-1 anti-albumin (VHH)
VHH: EVQLVESGGGLVQPGGSLRLSCAASGSTFYTAVMGWVRQAPGKGLEWVAAIRWTALTTSYADSVKGRFTISRDGAKTTLYLQMNSLRPEDTAVYYCAARGTLGLFTTADSYDYWGQGTLVTVSS
notes: Single domain antibody; also called half-life extending single domain antibody
For the molecule B2, the figures for the Kd in the experiment with human serum albumin [2] and in the experiment with human serum albumin [4] were 4.19 nM and 5.98 nM, respectively. Moreover, the koff in the experiment with human serum albumin [2] amounted to 0.00186 s⁻¹; in the experiment with human serum albumin [4], 0.00341 s⁻¹. Moreover, the kon in the experiment with human serum albumin [2] was determined as 444000 M⁻¹ s⁻¹; with human serum albumin [4], 571000 M⁻¹ s⁻¹. Moreover, the “EC50 (read off the curve)” value was ~2 nM in experiment [3] and ~1 nM with human serum albumin [7]. In addition, the EC50 in experiment [5] worked out at 1.3 nM; in the experiment with human serum albumin [6] it was 0.9 nM; in experiment [8] it was 1.3 nM; with human serum albumin [9] it was 1 nM. For the same molecule, in the experiment with Mouse Albumin, the binding result is on record as “binds”.

B3: HE-2 (VHH)
VHH: B2 VHH with S110H
notes: also called (HE-2) Anti-albumin
With B3, the binding result with human serum albumin [10] is “binds”.

B4: Polypeptide complex PC3 (bispecific antibody)
light: DIQLTQSPSSLSASVGDRVSITCKASQDVSIAVAWYQQKPGKAPKLLIYSASYRYTGVPDRFSGSGSGTDFTLTISSLQPEDFAVYYCQQHYITPLTFGAGTKVEIKRTVAAPSVFIFPPSDEQLKSGTASVVCLLNNFYPREAKVQWKVDNALQSGNSQESVTEQDSKDSTYSLSSTLTLSKADYEKHKVYACEVTHQGLSSPVTKSFNRGEC
heavy: QTVVTQEPSLTVSPGGTVTLTCRSSTGAVTTSNYANWVQQKPGQAPRGLIGGTNKRAPGTPARFSGSLLGGKAALTLSGVQPEDEAEYYCALWYSNLWVFGGGTKLTVLGGGGSGGGGSGGGGSEVQLVESGGGLVQPGGSLKLSCAASGFTFNTYAMNWVRQAPGKGLEWVARIRSKYNNYATYYADSVKDRFTISRDDSKNTAYLQMNNLKTEDTAVYYCVRHGNFGNSYVSWFAYWGQGTLVTVSSGGGGSQVQLQQSGSELKKPGASVKVSCKASGYTFTNYGMNWVKQAPGQGLKWMGWINTYTGEPTYTDDFKGRFAFSLDTSVSTAYLQISSLKADDTAVYFCARGGFGSSYWYFDVWGQGSLVTVSSASTKGPSVFPLAPSSKSTSGGTAALGCLVKDYFPEPVTVSWNSGALTSGVHTFPAVLQSSGLYSLSSVVTVPSSSLGTQTYICNVNHKPSNTKVDKKVEPKSC
notes: TROP2 and CD3 targeting regions (anti-CD3 scFv fused to the Fab heavy chain); No mask and no HE-1
In the case of B4, the “H292 IC50 (pM), 72 hours, tumor cell killing with CD8+ T cells” value in experiment [1] came to 0.88 pM. The “EC50 (read off the curve)” value in experiment [11] is ~0.2 nM.

One may read the Kd as the free concentration of one partner at which half of the binding sites on the other are occupied at equilibrium, for simple one-to-one binding. As a reminder, the koff is the first-order rate constant of dissociation. As usually defined, the kon is the rate constant with which the complex forms. By EC50 (read off the curve) is commonly meant the concentration giving half of the maximal effect. The EC50 is the concentration that produces a half-maximal response.
